Positions count from the first letter of the chain named. Names may count otherwise.
Tests used:
purified protein [1] = substrate: C[C@H](O)CC(=O)SCCNC(=O)CCNC(=O)[C@H](O)C(C)(C)COP(=O)(O)OP(=O)(O)OC[C@H]1O[C@@H](n2cnc3c(N)ncnc32)[C@H](O)[C@@H]1OP(=O)(O)O; assay: purified protein; type: biochemical, Rattus norvegicus; details: 1 mM NAD+, pH 9.0, 50 mM Tris, 50 mM KCl, 25 °C, HAD dehydrogenase reaction
purified protein [2] = substrate: C[C@H](O)CC(=O)SCCNC(=O)CCNC(=O)[C@H](O)C(C)(C)COP(=O)(O)OP(=O)(O)OC[C@H]1O[C@@H](n2cnc3c(N)ncnc32)[C@H](O)[C@@H]1OP(=O)(O)O; assay: purified protein; type: biochemical, Homo sapiens; details: 1 mM NAD+, pH 9.0, 50 mM Tris, 50 mM KCl, 25 °C

B1: BCDE (Rattus norvegicus) (protein)
chain: ASGQAKALQYAFFAEKSANKWSTPSGASWKTASAQPVSSVGVLGLGTMGRGIAISFARVGISVVAVESDPKQLDAAKKIITFTLEKEASRAHQNGQASAKPKLRFSSSTKELSTVDLVVEAVFEDMNLKKKVFAELSALCKPGAFLCTNTSALNVDDIASSTDRPQLVIGTHFFSPAHVMRLLEVIPSRYSSPTTIATVMSLSKKIGKIGVVVGNCYGFVGNRMLAPYYNQGFFLLEEGSKPEDVDGVLEEFGFKMGPFRVSDLAGLDVGWKIRKGQGLTGPSLPPGTPVRKRGNSRYSPLGDMLCEAGRFGQKTGKGWYQYDKPLGRIHKPDPWLSTFLSQYREVHHIEQRTISKEEILERCLYSLINEAFRILEEGMAARPEHIDVIYLHGYGWPRHKGGPMFYAASVGLPTVLEKLQKYYRQNPDIPQLEPSDYLRRLVAQGSPPLKEWQSLAGPHGSKL
notes: truncated RnMFE1 from Ala260 (ASGQ) to the C-terminus, without domain A (ECH part); N-terminal His6 tag, E. coli BL21(DE3) pLysS
Question: Which Km (purified protein [1]) does the source give for B1 here?
Answer: The Km was 5.2 ± 0.9 µM.

Question: What about the kcat (purified protein [1]) of the same protein?
Answer: Its kcat is 1.6 ± 0.1 s⁻¹.

B2: RnMFE1 (Rattus norvegicus) (protein)
chain: MAEYLRLPHSLAMIRLCNPPVNAVSPTVIREVRNGLQKAGSDHTVKAIVICGANGNFCAGADIHGFSAFTPGLALGSLVDEIQRYQKPVLAAIQGVALGGGLELALGCHYRIANAKARVGLPEVTLGILPGARGTQLLPRVVGVPVALDLITSGKYLSADEALRLGILDAVVKSDPVEEAIKFAQKIIDKPIEPRRIFNKPVPSLPNMDSVFAEAIAKVRKQYPGVLAPETCVRSIQASVKHPYEVGIKEEEKLFMYLRASGQAKALQYAFFAEKSANKWSTPSGASWKTASAQPVSSVGVLGLGTMGRGIAISFARVGISVVAVESDPKQLDAAKKIITFTLEKEASRAHQNGQASAKPKLRFSSSTKELSTVDLVVEAVFEDMNLKKKVFAELSALCKPGAFLCTNTSALNVDDIASSTDRPQLVIGTHFFSPAHVMRLLEVIPSRYSSPTTIATVMSLSKKIGKIGVVVGNCYGFVGNRMLAPYYNQGFFLLEEGSKPEDVDGVLEEFGFKMGPFRVSDLAGLDVGWKIRKGQGLTGPSLPPGTPVRKRGNSRYSPLGDMLCEAGRFGQKTGKGWYQYDKPLGRIHKPDPWLSTFLSQYREVHHIEQRTISKEEILERCLYSLINEAFRILEEGMAARPEHIDVIYLHGYGWPRHKGGPMFYAASVGLPTVLEKLQKYYRQNPDIPQLEPSDYLRRLVAQGSPPLKEWQSLAGPHGSKL
Question: How did the Km (purified protein [1]) turn out when B2 was run?
Answer: Its Km is 11 ± 2 µM.

Question: And the kcat (purified protein [1])?
Answer: Its kcat is 1.9 ± 0.3 s⁻¹.

B3: RnMFE1 (Rattus norvegicus; E123A) (protein)
chain: B2 chain with E123A
Question: With B3 as the protein, how does the Km (purified protein [1]) read?
Answer: Its Km is 10 ± 0.6 µM.

Question: And the kcat (purified protein [1])?
Answer: The kcat was 2.4 ± 0.1 s⁻¹.

B4: HsHAD (Homo sapiens) (protein)
chain: SSSSTASASAKKIIVKHVTVIGGGLMGAGIAQVAAATGHTVVLVDQTEDILAKSKKGIEESLRKVAKKKFAENLKAGDEFVEKTLSTIATSTDAASVVHSTDLVVEAIVENLKVKNELFKRLDKFAAEHTIFASNTSSLQITSIANATTRQDRFAGLHFFNPVPVMKLVEVIKTPMTSQKTFESLVDFSKALGKHPVSCKDTPGFIVNRLLVPYLMEAIRLYERGDASKEDIDTAMKLGAGYPMGPFELLDYVGLDTTKFIVDGWHEMDAENPLHQPSPSLNKLVAENKFGKKTGEGFYKYK
notes: N-terminal His6 tag in pET28a, E. coli BL21(DE3) pLysS, dimer of 35 kDa subunits
Question: Which results are given for B4?
Answer: Km (purified protein [2]): 19 ± 0.9 µM; kcat (purified protein [2]): 42 ± 2 s⁻¹

From publication PMC10988713
